Biological target: human prostate-specific antigen (PSA) (human) (UniProt P07288)
Assay: cell-based or functional assay

Sequence of UniProt P07288 (P07288 25-261 limits assumed): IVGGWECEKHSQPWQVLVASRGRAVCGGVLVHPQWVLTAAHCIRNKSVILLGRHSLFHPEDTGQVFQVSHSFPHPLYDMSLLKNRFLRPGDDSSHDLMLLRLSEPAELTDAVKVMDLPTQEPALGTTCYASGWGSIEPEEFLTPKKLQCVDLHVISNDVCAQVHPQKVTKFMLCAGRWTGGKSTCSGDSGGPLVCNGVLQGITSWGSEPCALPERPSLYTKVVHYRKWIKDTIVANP

Substance: anti-PSA monoclonal antibody clone ER-PR8
- decrease in PSA enzymatic activity: 46%

Reference: US20040053425A1
